Target: human APC mutation cluster region fragment (codons 1,294-1,369) with N-terminal VSV tag, 4 glycine s (human) (UniProt P25054)
Sequence (P25054 other isoform, or with tags, fused parts or gaps limits assumed): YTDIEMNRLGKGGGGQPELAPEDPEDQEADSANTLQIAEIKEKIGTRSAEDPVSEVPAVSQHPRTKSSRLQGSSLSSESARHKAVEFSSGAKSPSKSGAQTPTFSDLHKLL

Question: With “anti-VSV antibody conjugated to the Cy3 fluorophore (clone P5D4; Sigma-Aldrich, St. Louis, Mo.)” as the substance, how does the signal to noise ratio read?
Answer: 179 :1
